# T1: CasΦ3 Q197A (Biggiephage, Q197A)
# T1 chain: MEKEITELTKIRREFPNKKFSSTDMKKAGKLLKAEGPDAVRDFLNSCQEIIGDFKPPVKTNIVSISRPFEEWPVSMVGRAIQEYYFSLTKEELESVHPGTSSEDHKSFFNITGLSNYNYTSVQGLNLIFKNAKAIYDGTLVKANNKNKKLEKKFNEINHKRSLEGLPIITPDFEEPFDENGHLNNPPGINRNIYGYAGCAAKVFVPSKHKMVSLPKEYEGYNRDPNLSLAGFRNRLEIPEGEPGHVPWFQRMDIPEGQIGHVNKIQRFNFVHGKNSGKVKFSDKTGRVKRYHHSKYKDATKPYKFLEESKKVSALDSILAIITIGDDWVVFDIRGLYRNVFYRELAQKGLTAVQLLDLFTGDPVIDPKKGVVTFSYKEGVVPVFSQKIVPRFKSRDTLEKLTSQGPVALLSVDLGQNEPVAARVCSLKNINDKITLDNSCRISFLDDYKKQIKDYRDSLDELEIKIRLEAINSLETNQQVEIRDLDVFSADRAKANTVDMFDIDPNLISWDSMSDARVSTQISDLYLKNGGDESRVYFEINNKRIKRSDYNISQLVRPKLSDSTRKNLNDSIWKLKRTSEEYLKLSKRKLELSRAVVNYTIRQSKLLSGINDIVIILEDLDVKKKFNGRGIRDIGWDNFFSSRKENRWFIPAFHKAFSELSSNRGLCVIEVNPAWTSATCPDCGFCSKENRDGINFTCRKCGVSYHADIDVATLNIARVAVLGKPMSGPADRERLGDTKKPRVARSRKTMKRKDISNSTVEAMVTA
# T2: CasΦ3 Q123A (Biggiephage, Q123A)
# T2 chain: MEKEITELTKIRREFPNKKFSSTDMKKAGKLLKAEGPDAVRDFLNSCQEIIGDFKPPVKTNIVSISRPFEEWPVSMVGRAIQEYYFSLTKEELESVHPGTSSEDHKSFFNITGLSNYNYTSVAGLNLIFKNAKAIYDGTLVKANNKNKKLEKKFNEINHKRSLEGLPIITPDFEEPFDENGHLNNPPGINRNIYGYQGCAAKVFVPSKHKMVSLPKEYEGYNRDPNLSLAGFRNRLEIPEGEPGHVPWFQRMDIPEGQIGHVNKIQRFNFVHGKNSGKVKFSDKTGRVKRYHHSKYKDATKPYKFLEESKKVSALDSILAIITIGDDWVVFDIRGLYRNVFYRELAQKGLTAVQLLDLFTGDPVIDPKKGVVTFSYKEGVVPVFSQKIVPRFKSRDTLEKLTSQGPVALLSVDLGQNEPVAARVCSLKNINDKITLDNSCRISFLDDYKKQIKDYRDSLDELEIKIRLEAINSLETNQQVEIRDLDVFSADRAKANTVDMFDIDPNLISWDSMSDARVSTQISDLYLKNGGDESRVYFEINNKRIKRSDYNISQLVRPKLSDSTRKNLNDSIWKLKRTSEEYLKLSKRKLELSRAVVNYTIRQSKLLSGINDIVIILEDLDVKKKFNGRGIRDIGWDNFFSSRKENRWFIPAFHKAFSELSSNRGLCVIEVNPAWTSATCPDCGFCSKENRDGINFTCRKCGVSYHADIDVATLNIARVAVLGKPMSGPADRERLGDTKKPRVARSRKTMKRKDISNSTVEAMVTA
# T3: CasΦ3 K30A (Biggiephage, K30A)
# T3 chain: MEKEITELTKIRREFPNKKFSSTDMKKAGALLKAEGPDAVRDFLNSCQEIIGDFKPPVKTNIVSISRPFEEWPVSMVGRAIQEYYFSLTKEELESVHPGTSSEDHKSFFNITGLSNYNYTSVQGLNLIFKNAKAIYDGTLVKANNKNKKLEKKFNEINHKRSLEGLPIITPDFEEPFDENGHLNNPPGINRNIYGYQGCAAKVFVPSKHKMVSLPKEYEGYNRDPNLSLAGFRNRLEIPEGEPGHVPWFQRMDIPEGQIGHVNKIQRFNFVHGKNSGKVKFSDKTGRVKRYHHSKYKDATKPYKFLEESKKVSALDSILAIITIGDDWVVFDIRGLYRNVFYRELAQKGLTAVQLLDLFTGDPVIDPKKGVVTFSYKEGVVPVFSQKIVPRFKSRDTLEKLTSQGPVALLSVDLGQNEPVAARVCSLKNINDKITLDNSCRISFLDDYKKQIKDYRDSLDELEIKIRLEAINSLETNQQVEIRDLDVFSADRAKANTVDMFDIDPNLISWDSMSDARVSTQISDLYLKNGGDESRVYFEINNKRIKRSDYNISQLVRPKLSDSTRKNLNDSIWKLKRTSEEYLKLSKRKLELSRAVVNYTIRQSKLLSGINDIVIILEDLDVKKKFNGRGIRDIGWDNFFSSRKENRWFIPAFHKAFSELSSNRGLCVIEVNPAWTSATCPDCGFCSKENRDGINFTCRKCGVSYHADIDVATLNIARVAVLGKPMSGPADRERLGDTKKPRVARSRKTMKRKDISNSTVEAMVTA
# Legend:
# Experiment in all cases: cleavage_in_vitro; PAM TTC; 5 mM Mg2+
# Settings in all cases: tags: C-terminal His6; label: 5'-FAM on NT-strand, 3'-FAM on T-strand
# CasΦ3 Q197A = target: T1, CasΦ3 Q197A
# CasΦ3 Q123A = target: T2, CasΦ3 Q123A
# CasΦ3 K30A = target: T3, CasΦ3 K30A
binder,measurement,setting,value
CasΦ3 crRNA ; FAM-labelled target dsDNA (5F-NT-TTC-30/3F-T-AAG-30) (ssRNA ; dsDNA) RNA: UAUUGAUUGCCCAGUACGCUGGGACAGCUGGUAAUGGGAUACCUU DNA 1: GTAATTCAGCTGGTAATGGGATACCTTGTGCTACAGC DNA 2: GCTGTAGCACAAGGTATCCCATTACCAGCTGAATTAC,activity,CasΦ3 Q197A,~90 % reduction vs WT
same,activity,CasΦ3 Q123A,~90 % reduction vs WT
same,activity,CasΦ3 K30A,~55 % reduction vs WT
